The values below come from paper PMC6778148 (Nature Communications, 2019).

Primed or numbered codes have the meaning given here. Ends that are not written are not given here. FITC′ = fluorescein isothiocyanate label; TTDS = PEG linker

The labels stand for the following.
B1: biotinylated Xph15 [S63K]-(GGS)12-ETWV, from pbIG (designed binder)
chain: SSVSSVPTKLEVVAATPTSLLISWDAGPRNVSYYRITYGETGGNSPVQEFTVPGSSSTATISGLKPGVDYTITVYASGHVSTLMTPISINYRTLEGGSGGSGGSGGSGGSGGSGGSGGSGGSGGSGGSGGSGTETWV
modifications: biotin on the AviTag (BirA)
B2: PSD-95 PDZ domain 2 (PSD-95-2), as used for fluorescence polarisation (domain or fragment, rat)
chain: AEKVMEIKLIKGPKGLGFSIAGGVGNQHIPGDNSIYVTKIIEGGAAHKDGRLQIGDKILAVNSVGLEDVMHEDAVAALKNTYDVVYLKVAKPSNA
notes: also called PSD-95 second PDZ domain; source: E. coli, purified
B3: biotinylated Xph20 [S63K]-(GGS)12-ETWV, from pbIG (designed binder)
chain: SSVSSVPTKLEVVAATPTSLLISWDAVAKNVKVGYYRITYGETGGNSPVQEFTVPGSSSTATISGLKPGVDYTITVYANGVLSKMVLPISINYRTLEGGSGGSGGSGGSGGSGGSGGSGGSGGSGGSGGSGGSGTETWV
modifications: biotin on the AviTag (BirA)
notes: also called Xph20-ETWV; not shown: AviTag (biotin acceptor peptide), N-terminal, kept
B6: biotinylated Xph18 [S63K]-(GGS)12-ETWV, from pbIG (designed binder)
chain: SSVSSVPTKLEVVAATPTSLLISWDAHSRMAWVNYYRITYGETGGNSPVQEFTVPGSSSTATISGLKPGVDYTITVYANGGGFRRGMAPISINYRTLEGGSGGSGGSGGSGGSGGSGGSGGSGGSGGSGGSGGSGTETWV
modifications: biotin on the AviTag (BirA)
B7: SAP102 tandem PDZ domains 1 and 2 (SAP102-12), from pET-NO (domain or fragment, rat)
chain: FKYEEIVLERGNSGLGFSIAGGIDNPHVPDDPGIFITKIIPGGAAAMDGRLGVNDCVLRVNEVDVSEVVHSRAVEALKEAGPVVRLVVRRRQPPPETIMEVNLLKGPKGLGFSIAGGIGNQHIPGDNSIYITKIIEGGAAQKDGRLQIGDRLLAVNNTNLQDVRHEEAVASLKNTSDMVYLKVAKPGSL
notes: first two PDZ domains of rat SAP102, residues 145-333; also called NO-SAP102-12

Common to all, as to settings: both partners purified
For experiment [1], the target named is T1, PSD-93 tandem PDZ domains 1 and 2 (PSD-93-12), from pET-NO (rat).
T1 construct: first two PDZ domains of rat PSD-93, residues 93-282; also called NO-PSD-93-12
The experiment is described as follows: SPR; Biacore T200, single cycle kinetics at higher analyte concentrations (up to 35 µM); biotinylated Xph15/18/20-ETWV captured (ligand), tandem PDZ domains as analyte; steady state analysis, one site binding (hyperbola). In general terms: In SPR one partner is held on a chip, and binding of the other changes the refractive index at the surface.

Experiment [2] has as its target T2, fluorescein-labelled monovalent stargazin peptide.
T2 chain: {FITC′-TTDS}-DSLHANTANRRTTPV
Nature of the experiment: fluorescence polarisation; direct titration: 50 nM fluorescein-labelled stargazin ligand (divalent or monovalent) against increasing concentrations of PDZ domains; apparent KD. In general terms: Polarisation of emitted light reports the rotation of a fluorescent probe.

For experiment [3], the target named is T3, PSD-95 tandem PDZ domains 1 and 2 (PSD-95-12), from pET-NO (rat).
T3 construct: first two PDZ domains of rat PSD-95, residues 61-249; also called NO-PSD-95-12; not shown: His8, N-terminal, kept
The experiment is described as follows: SPR; Biacore T200, single cycle kinetics; biotinylated Xph-motif fusion captured on a CAP chip (ligand), tandem PDZ domains as analyte; 25 °C; PBS with 500 mM NaCl pH 7.4, 0.1% Tween 20; global 1:1 fit (kinetics analysis).

Experiment [4] addresses T1, PSD-93 tandem PDZ domains 1 and 2 …. The experiment is described as follows: pull-down; competitive pull-down: streptavidin beads with 120 pmol biotinylated [Stg15]2, 180 pmol tandem PDZ domains, then 0-50 (100) equivalents of Xph20-ETWV or Xph0-ETWV; PBS with 500 mM NaCl pH 7.4, Tween 20, 0.5% BSA; SDS-PAGE, colloidal blue, densitometry; One site - Fit Ki.
Experiment [5] deals with T4, SAP97 tandem PDZ domains 1 and 2 (SAP97-12), from pET-NO (rat).
T4 construct: first two PDZ domains of rat SAP97, residues 220-408; also called NO-SAP97-12; not shown: His8, N-terminal, kept
The experiment is described as above.

Experiment [6] addresses T3, PSD-95 tandem PDZ domains 1 and 2 …. The description is as above.
Experiment [7] deals with B7. Described as above.
The target in experiment [8] is B2. The experiment is described as follows: fluorescence polarisation; competitive titration: ETWV or stargazin monovalent peptide against the complex of 50 nM FITC monovalent stargazin peptide with 24 µM PSD-95-2.
Experiment [9] concerns the target B2. Described as above.
The target of experiment [10] is B3. The experiment is described as follows: SPR; Biacore T200, single cycle kinetics at higher analyte concentrations (up to 35 µM); biotinylated Xph15/18/20-ETWV captured (ligand), tandem PDZ domains as analyte; steady state analysis, one site binding (hyperbola).
Experiment [11] has as its target B1. The description is as above.
Experiment [12] addresses B6. The experiment is described as above.

T1 sequence (chain, as listed by the source): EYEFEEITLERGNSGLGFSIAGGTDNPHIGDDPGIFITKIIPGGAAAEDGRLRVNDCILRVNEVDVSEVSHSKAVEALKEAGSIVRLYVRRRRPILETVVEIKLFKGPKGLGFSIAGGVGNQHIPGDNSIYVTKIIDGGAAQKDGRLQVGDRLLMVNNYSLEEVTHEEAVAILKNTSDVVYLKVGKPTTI

Turning to B1, in [1], the Kd worked out at 8.4 µM.

As for B2, the Kd in experiment [2] is 16 µM.

In turn, B3 displayed a Kd in [1] of 7.5 µM. For the same molecule, in experiment [3], the Kd stood at 0.089 nM, the dissociation rate constant (koff) is 0.00052 s⁻¹ and the on-rate (kon) stood at 8.7e+06 M⁻¹ s⁻¹.

B4: Xph20 [S63K]-(GGS)12-ETWV with N-terminal His10, from pET-IG (designed binder)
chain: SSVSSVPTKLEVVAATPTSLLISWDAVAKNVKVGYYRITYGETGGNSPVQEFTVPGSSSTATISGLKPGVDYTITVYANGVLSKMVLPISINYRTLEGGSGGSGGSGGSGGSGGSGGSGGSGGSGGSGGSGGSGTETWV
notes: also called Xph20-ETWV; pIG-Xph20-ETWV; not shown: His10, N-terminal, kept
For the molecule B4, the inhibition constant Ki in experiment [4] was 0.261 µM; in experiment [5] it was 0.901 µM; in experiment [6], 0.0365 µM; in experiment [7] it was 1.44 µM.

B5: acetylated monovalent stargazin peptide (peptide)
chain: Ac-DSLHANTANRRTTPV
As to B5, the Ki worked out at 8.6 µM in experiment [8] and 8.8 µM in [9].

On to B6, for which the Kd in experiment [1] worked out at 3.2 µM.

Take B7: the Kd in experiment [10] was determined as 9.9 µM; in experiment [11], 9.8 µM; in [12], 4.2 µM.

For orientation: koff means the first-order rate constant of dissociation. Read a high koff as fast dissociation. What is called kon is a measure of how fast the partners come together. A higher kon goes with faster complex formation. For orientation: Ki means the equilibrium dissociation constant of an inhibitor or competing ligand from its target.
